Assay results from the supplement of paper PMC11502859.

Test system: HEK293T
Test: median enrichment of reporter reads in eGFP-reduced (low/intermediate) vs eGFP-high sorted cells (eGFP-extension fusion abundance) (ratio); higher = stronger loss of eGFP-fusion protein abundance (more destabilising extension)
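Note: lentiviral eGFP-IRES-mCherry reporter pool sorted by FACS 96 h post-transduction, gated on mCherry-high cells, Illumina read counts normalized per million, median across four biological replicates.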

Row | Substance | median enrichment
1 | SVGQATPPSSSCLRRSHSIHWNRSWVSLCSCLSFPRDPTPLWGSGTLHCTGSLHTGRGTCAPTSETCRSPQLTCPTGAQHCTQ [MAP3K11] | 5.17
2 | SVGSPSKPRPLKPPLAAPRSSHYLCPEGGKSFPAHPPR [BCL7C] | 1.39
3 | SVGTAQWRRGYSPG [HTR3A] | 28
4 | SVHQLPAPALAPTPSSLKHPPAHCGQLCATRAHGAPPVL [BAIAP3] | 1.3
5 | SVIPGLSTPASPPAAGTALTLLSDPHSFPEMLRMFISPAPDPMSPGLRVCFPHIGLTVSL [KLK5] | 12.1
6 | SVLPAHLGLVLALPRPL [LRSAM1] | 14.6
7 | SVLPSVTSNSGKRKLK [STARD13] | 0.451
8 | SVPLSHPYL [KLK2] | 0.37
9 | SVPRPCQPCCTGCRHCTRCEGSTPAQAEFLGSTSPAAWGTGIAHSVNGSTPAWAESLGSDLAAWGESLGSVLAAWGAGIAQSM [WNT9A] | 7.93
10 | SVQMMWEFVGFLFFFFFDT [ZNF80] | 7.98
11 | SVRLDWGGWHCVGGQLSI [ACTL10] | 13.7
12 | SVS [PACSIN3] | 0.33
13 | SVSGNHEGIWQ [MOAP1] | 0.522
14 | SVVPLFH [KIF22] | 0.762
15 | SVWAGLFNMVFAVLPPWGPWSDNIVSLVRLSRCLIRTANGASPTPPRVRPPFHQRVSSQRPPASCPAAQEEKEGLNSIAIFFP [PDGFB] | 7.44
16 | SVWGLAPCSPGPHCSHTLRLGPPSLLWC [TOM1] | 8.98
17 | SWHSSPHTCSQAQMEVP [ACTL6B] | 0.404
18 | SWPPASASSYLLPGSPPRRPPYRERGFTR [OGG1] | 6.11
19 | SWPPPFPPPAPSPSPTRQLIPGLLSDPFSRGTSGQCPTTHTHHHLTGSSLISDNPHPHCFWGSLSHLSHPVSCLCLSWCLSGL [CCDC97] | 5.65
20 | SWRRPMCIFF [FRAS1] | 9.68
21 | SWTGLFLTSDLSQCLFCPGSDFPVVLPPFRIKGLIVYPEFTSFGVYI [COBL] | 13
22 | SWTVPICREA [RWDD1] | 6.01

Row | Substance | median enrichment
23 | SWVCAQPFKAAGSTT [TRIM45] | 4.99
24 | SYCSMDIK [KDM6A] | 1.22
25 | SYEQNKTLRKINRQGSDLFLKNLRSVDSQED [PRKACB] | 2.01
26 | SYFRLESKTS [PIK3CG] | 1.99
27 | SYGTLAPRHEARWPVFLNLKCKILLFPGPRRV [ICOS] | 11
28 | SYKPA [WDR97] | 0.947
29 | SYKQRTSSILRKEML [MEOX2] | 5.43
30 | SYKSIVSDWTITSFNNVSNNVLY [FAM135A] | 30.6
31 | SYLQCPCCVALQMRPLQTRPA [WDCP] | 8.46
32 | TAPALELGARAAELVFGPQRRIQNQKLKSDVRWAPAPSAESRQGEAGWSQAPSHAAPKSWTHLWGAPHLHLRPHISPLPFLYV [MYO9B] | 5.92
33 | TIRLWDTYQSEPDGFSHFHLYVCAAFLVRWRKEILEEKDFQELLLFLQNLPTAHWDDEDISLLLAEAYRLKFAFADAPNHYKK [TBC1D22A] | 4.42
34 | TLTMPRPHPVQHSQSSHLHPRTVGAGRHFPLEHVLRSITLGPTARLSLPPGSCMRSPDQLDHHFAQPLNTMHQASISQFPLAF [SCARA5] | 3.72
35 | TMEPPGGRQKKR [Degron FEM1C] | 0.496
36 | TMNNEEDLLRSL [Degron FEM1C] | 0.347
37 | TPAPGLGRELTRTGCSQKAGPSLSPKPLLDLWRSCRLDREAVPLSSPSPSRASPWSFRSSFWGLFQVRRMEEGGQATQHPPTP [FOXN4] | 5.36
38 | TQWAPCTPVSGAVRLGYIVNSASTERLALRASSESSSSGTPPKPTPPGTPLSGIPAKRRTLSRSRPPHPQSVAPPTEQPRFGP [PRRT1] | 0.999
39 | TSLYKKVGMGRK [Degron APPBP2] | 14.1
40 | TTMERWAVAMVDGLPGWAFELALGTTRLSLSSHGTQKCAAMLPRVLSPHLSQPSWRPGLSLQPLGPALIAGGQALDLEGLAHP [ADGRG1] | 5.12
41 | TTT [Thr03] | 0.568
42 | TTTT [Thr04] | 0.324
43 | TTTTT [Thr05] | 0.336
44 | TTTTTT [Thr06] | 0.322

Row | Substance | median enrichment
45 | TTTTTTT [Thr07] | 0.319
46 | TTTTTTTT [Thr08] | 0.414
47 | TTTTTTTTT [Thr09] | 0.552
48 | TTTTTTTTTT [Thr10] | 0.379
49 | VAANTPASGLLVAAPGDTPAKPTRWRGPPWSLATLPASAQGPLPSPGHLLCRRHSSQKPLSQKRLVFKKSRFFAPEVSFRGRM [AP1M1] | 4.38
50 | VGIRAAPSGAGTAGTAAILLLLVFFLLSKINCGNILVSCDVRCSFVVKFAIDIEIMTSVFPEIKHVSTQDFLDHSRKCQTFSQ [KISS1R] | 7.04
51 | VGTMAAGRAPGK [Degron APPBP2] | 6
52 | VSGIMRRPWGMN [Degron APPBP2] | 10.2
53 | VSHAYAHAQPPSGSLESRADTHSHTHCLAKNTPCLPCHSPHSHSLSPDPCLSLDCRGTTHLFGIQGPQPTVPSPINCSRAPHK [FOXP3] | 2.58
54 | VSSFLLVFFILFSFHQPSCILALQRDRDRSSAQGFSLPLFIMGGGYHPPSQSCEESGTSFFPTSLFPHSFLSPSGLSFPYTLT [NOTCH3] | 5.94
55 | VVRASPYLLLSPCEEDPDLASFPRRGWGVPRVPVLEGPPSPSLITVLFSAPPSAARLQHQGEADAEPHRWESCLWKGAFCYNL [ZNF646] | 3.51
56 | VVV [Val03] | 0.518
57 | VVVV [Val04] | 1.54
58 | VVVVV [Val05] | 10.3
59 | VVVVVV [Val06] | 5.06
60 | VVVVVVV [Val07] | 7.67
61 | VVVVVVVV [Val08] | 10.5
62 | VVVVVVVVV [Val09] | 8.21
63 | WAAAARPSGTPASPGGALGQVPSGRTTPGPQGPRPAATLVVAASRSAFGRPLGVAGAARRVQVEVPVPGPQRA [B3GALT6] | 8.24
64 | WAAPPGRWGAPLNDSVILKRWLGSWEKPSGCPLGNLHIISVLLVMSRWRGHRCAVSCSRNY [C19orf12] | 22
65 | WACYFHGVCQ [OR5D18] | 4.25
66 | WADPGYVPYPRGLSIDRDYIITWLEVKGSIQVLHLVLPCLLSDHSDGLMWLLMWNCRRVQRRVCNKAIGKHTGAFPSPSGPRP [HS3ST3B1] | 4.31

Row | Substance | median enrichment
67 | WADPVGIRAAPSGAGTAGTAAILLLLVFFLLSKINCGNILVSCDVRCSFVVKFAIDIEIMTSVFPEIKHVSTQDFLDHSRKCQ [KISS1R] | 10.9
68 | WAGLRGMVRTSPP [NANS] | 6.83
69 | WALGLKSQLFLSCSV [DIRAS3] | 35.7
70 | WALHPARS [IQCD] | 0.961
71 | WAPGTAPHCQLPLLGGPGRRVPPSPCQGPGDPLPGCLRLLLRRGNAKKEKEKPRARPLPPAVHCAASSVPGLTVPLSSAPARQ [NRXN2] | 6.68
72 | WAPLPPTPYQLQSGGFHAQMALGVTSSFACGP [TPGS2] | 10.1
73 | WAPSCLSRDPGTPPARTLGLSLPRAPPASVDWRVVLPLPRNQPQPR [SLC9A3R2] | 18.7
74 | WARGHARAVQSWPGPPVGLLCSLPSLPPDAGPCCSLRTIRSSCSCHPHLETCLCAHLKMGSVPVLKCPVAAPVVEDQGLRFGT [FRMD8] | 5.56
75 | WARRASQRSGQAVRPWPSVC [INMT] | 9.99
76 | WARSAVSSQWILVNWWRLADTLEKPKPESLLFSLFSCLCSVSLNTTFSAMVCG [MRFAP1] | 5.48
77 | WARSTGPDEWIFTTFTRL [CD8B] | 7.72
78 | WARTLNRTPVGPARTACSAGDGSDPWSSIAPHDIESRPVFALWEENGRESGQLSQSIRAGRT [ABCC6] | 7.78
79 | WARTSPGTAGGPPPPPSHSVTPGPSGAGWRPRSPLLRSPRS [NPB] | 3.31
80 | WARVVARPCTTAIANQSPKAKFTCCSHPQ [MAGEB2] | 8.12
81 | WASSPPAHVMKQRFGLVAHCLWPPSPAQPQASQPQTLESPTTMERWAVAMVDGLPGWAFELALGTTRLSLSSHGTQKCAAMLP [ADGRG1] | 5.77
82 | WATLRSVFPLPPSPHVRRPPPRCSRGS [C19orf57] | 15.9
83 | WATLSVGFFLEDSTLLPHVLSQLQS [CSTF1] | 4.6
84 | WAV [GBA2] | 0.997
85 | WAVSLTCPGTPAPGLGRELTRTGCSQKAGPSLSPKPLLDLWRSCRLDREAVPLSSPSPSRASPWSFRSSFWGLFQVRRMEEGG [FOXN4] | 4.84
86 | WAWTLEKEARSQPLAGQGRRPQEPSPPLLCVGTGGPWPVPGHSGQGPRDISTRSWRAVRIHSACPALAGQRQGRTFGKTKTVG [TCF15] | 5.34
87 | WCLGSTCLLSPQGLSLASLQWGCCVSVHLRLLCLCLLHHAGVWEEWTDRG [TCL1A] | 4.56
88 | WCLHHLCSCSLKGSPYSKPPKLGDPSSP [MPIG6B] | 6.53

Row | Substance | median enrichment
89 | WCPGVCCLAHMSLL [CLSTN2] | 5.25
90 | WCPPKP [FAM8A1] | 0.371
91 | WCSYLFFSSLS [LAMTOR5] | 13.3
92 | WCWKRSKHWPLVSTLQPPQVPLWGDTGGPLAVTPCAWSDPRPLPPARFLLSPAWEDVSLSTSQRARGARGWTGQ [PPP2R1A] | 3.49
93 | WDFGSF [TSPAN31] | 0.573
94 | WDGR [ZNF772] | 0.288
95 | WDRAGDEARPWTLHPAIETGLRRKEDPGQDPGRLATPPTPRTYSR [NUPR1] | 5.32
96 | WDREDPA [BTNL3] | 0.401
97 | WDSSPSPSDQGPSSSKPEAELPAHPCRPPKPTPPHPV [ARL8A] | 1.02
98 | WDSSQFERQ [MYCBP] | 0.249
99 | WEAGWG [RPS6KB2] | 1.06
100 | WECRSAGRREE [CNPY1] | 7.46
101 | WEDPPEE [IGF1] | 1.04
102 | WEDRPAASWSREASVIAHTQFRFPPLYRQEVNLPGAEHPPKESPLNNTPPPRQECPNPNDPSFPNE [EDN3] | 0.582
103 | WEKN [C12orf65] | 0.333
104 | WEKQAKEKSVTVPL [KIDINS220] | 0.839
105 | WEKSYKCKECGKPLDDPQTLMNMRKFIL [ZNF141] | 11.7
106 | WELLFLGEGEEGKGPGSRGTRG [EPHB1] | 5.5
107 | WEMVGIRLRAASTQSQSKASLLMCEFTNSDGSSHILQMLSLPAG [ITSN2] | 19.2
108 | WEPTACRCRRMRGCRDARRRPRSQPTTPPPA [FOXL2] | 17.5
